Our source for the remaining activity values is article PMC8307404, “Crystal Structure-Guided Design of Bisubstrate Inhibitors and Photoluminescent Probes for Protein Kinases of the PIM Family” (Molecules, 2021).

Common to all, as to test: Kinase profiling (radiometric filter-binding)
Holding throughout (assay type): biochemical

The target of data set [1] is PDGFRA (Homo sapiens, UniProt P16234). The conditions noted are these: 1 µM inhibitor, read-out: Residual activity, %. Summed up:
(§1)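 Each compound, at 1 µM final, is screened against human protein kinases in a radiometric filter-binding format. ATP is set at or under the KM of each kinase. Values give retained activity relative to a control lacking inhibitor.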

The target of data set [2] is TTBK1 (Homo sapiens, UniProt Q5TCY1). Particulars: TTBK1, 1 µM inhibitor; read-out: Residual activity, %. Summed up:
as §1

Data set [3] has as its target T1, CHK1 (Homo sapiens, UniProt O14757).
T1 sequence (O14757 1-476): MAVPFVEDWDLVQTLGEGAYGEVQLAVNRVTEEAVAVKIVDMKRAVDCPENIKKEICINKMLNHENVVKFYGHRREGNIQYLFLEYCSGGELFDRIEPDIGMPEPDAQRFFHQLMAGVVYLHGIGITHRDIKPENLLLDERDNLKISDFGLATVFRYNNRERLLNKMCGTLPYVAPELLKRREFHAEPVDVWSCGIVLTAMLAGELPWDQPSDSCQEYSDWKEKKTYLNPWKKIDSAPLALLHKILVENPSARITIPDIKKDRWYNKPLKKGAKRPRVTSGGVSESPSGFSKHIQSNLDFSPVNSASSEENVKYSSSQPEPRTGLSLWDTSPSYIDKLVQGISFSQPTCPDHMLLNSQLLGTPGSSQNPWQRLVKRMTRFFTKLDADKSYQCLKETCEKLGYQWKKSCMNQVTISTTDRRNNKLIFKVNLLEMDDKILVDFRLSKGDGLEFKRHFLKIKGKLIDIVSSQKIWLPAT
The conditions noted are these: CHK1, 1 µM inhibitor; read-out: Residual activity, %. Summed up:
as §1

Data set [4] addresses IR (Homo sapiens, UniProt P06213). Particulars: 1 µM inhibitor, read-out: Residual activity, %. Summed up: as §1
The target of data set [5] is JAK2 (Homo sapiens, UniProt O60674). The conditions noted are these: JAK2, 1 µM inhibitor; read-out: Residual activity, %. The essentials: as §1
Data set [6] concerns the target T2, IKK (Homo sapiens, UniProt Q14164).
T2 sequence (Q14164 1-716): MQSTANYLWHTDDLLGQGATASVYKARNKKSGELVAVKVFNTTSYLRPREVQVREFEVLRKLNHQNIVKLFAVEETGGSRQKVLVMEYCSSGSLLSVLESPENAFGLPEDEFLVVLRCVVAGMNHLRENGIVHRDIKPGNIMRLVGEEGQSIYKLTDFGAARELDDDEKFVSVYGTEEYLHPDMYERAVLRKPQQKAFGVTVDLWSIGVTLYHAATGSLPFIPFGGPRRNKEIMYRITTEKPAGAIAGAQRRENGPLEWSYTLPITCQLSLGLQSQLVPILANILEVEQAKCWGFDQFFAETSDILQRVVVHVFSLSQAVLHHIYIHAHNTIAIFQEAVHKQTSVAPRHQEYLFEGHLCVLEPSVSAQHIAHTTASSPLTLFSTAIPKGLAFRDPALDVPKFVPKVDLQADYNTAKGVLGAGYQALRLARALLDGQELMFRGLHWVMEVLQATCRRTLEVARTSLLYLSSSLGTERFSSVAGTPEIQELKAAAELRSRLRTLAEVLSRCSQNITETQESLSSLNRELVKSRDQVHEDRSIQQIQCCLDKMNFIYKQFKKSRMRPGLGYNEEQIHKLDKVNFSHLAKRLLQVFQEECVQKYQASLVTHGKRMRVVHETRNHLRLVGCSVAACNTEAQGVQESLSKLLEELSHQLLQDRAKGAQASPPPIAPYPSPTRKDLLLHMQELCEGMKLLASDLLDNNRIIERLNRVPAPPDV
Particulars: second of two IKK lines (Greek letter lost), 1 µM inhibitor, read-out: Residual activity, %. The essentials:
as §1

The target in data set [7] is T3, SGK1 (Homo sapiens, UniProt O00141).
T3 sequence (O00141 1-431): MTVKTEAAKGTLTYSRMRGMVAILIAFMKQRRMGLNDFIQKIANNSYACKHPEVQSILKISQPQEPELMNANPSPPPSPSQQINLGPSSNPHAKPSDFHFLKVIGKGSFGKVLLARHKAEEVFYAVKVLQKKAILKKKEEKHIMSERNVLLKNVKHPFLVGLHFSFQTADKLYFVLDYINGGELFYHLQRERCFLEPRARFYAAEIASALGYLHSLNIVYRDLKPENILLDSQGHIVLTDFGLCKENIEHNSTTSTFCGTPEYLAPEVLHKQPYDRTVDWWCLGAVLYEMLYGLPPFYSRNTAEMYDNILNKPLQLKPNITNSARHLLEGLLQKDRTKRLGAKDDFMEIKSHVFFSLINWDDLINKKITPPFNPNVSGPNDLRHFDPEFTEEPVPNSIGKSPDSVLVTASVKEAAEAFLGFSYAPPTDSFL
The conditions noted are these: SGK1, 1 µM inhibitor; read-out: Residual activity, %. The essentials: as §1

For data set [8], the target named is T4, TAK1 (Homo sapiens, UniProt O43318).
T4 sequence (O43318 1-303 limits assumed): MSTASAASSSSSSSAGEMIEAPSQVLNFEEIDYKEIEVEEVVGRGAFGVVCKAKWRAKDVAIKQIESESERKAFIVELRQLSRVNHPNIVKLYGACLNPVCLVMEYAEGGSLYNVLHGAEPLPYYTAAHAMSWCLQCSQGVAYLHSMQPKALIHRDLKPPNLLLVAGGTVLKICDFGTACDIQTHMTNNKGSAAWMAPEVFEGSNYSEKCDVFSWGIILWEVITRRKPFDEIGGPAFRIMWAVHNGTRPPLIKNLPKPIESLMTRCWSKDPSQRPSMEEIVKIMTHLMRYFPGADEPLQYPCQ
The conditions noted are these: TAK1, 1 µM inhibitor; read-out: Residual activity, %. Summed up: as §1

Data set [9] deals with S6K1 (Homo sapiens, UniProt P23443). The conditions noted are these: S6K1, 1 µM inhibitor; read-out: Residual activity, %. Summed up: as §1
The target of data set [10] is HIPK1 (Homo sapiens, UniProt Q86Z02). The conditions noted are these: HIPK1, 1 µM inhibitor; read-out: Residual activity, %. The essentials:
as §1

Data set [11] deals with MELK (Homo sapiens, UniProt Q14680). Particulars: 1 µM inhibitor, read-out: Residual activity, %. Summed up:
as §1

For data set [12], the target named is MLK1 (Homo sapiens, UniProt P80192). Particulars: MLK1, 1 µM inhibitor; read-out: Residual activity, %. The essentials: as §1

Square brackets hold non-standard residues; d marks the D form. Peptide text beside a SMILES is read from it. * marks the point of attachment. X3 = O=C(CCCCCNCc1nc2c(sc3cc(Br)cnc32)c(=O)[nH]1)*

Sequence of JAK2 (O60674 whole entry): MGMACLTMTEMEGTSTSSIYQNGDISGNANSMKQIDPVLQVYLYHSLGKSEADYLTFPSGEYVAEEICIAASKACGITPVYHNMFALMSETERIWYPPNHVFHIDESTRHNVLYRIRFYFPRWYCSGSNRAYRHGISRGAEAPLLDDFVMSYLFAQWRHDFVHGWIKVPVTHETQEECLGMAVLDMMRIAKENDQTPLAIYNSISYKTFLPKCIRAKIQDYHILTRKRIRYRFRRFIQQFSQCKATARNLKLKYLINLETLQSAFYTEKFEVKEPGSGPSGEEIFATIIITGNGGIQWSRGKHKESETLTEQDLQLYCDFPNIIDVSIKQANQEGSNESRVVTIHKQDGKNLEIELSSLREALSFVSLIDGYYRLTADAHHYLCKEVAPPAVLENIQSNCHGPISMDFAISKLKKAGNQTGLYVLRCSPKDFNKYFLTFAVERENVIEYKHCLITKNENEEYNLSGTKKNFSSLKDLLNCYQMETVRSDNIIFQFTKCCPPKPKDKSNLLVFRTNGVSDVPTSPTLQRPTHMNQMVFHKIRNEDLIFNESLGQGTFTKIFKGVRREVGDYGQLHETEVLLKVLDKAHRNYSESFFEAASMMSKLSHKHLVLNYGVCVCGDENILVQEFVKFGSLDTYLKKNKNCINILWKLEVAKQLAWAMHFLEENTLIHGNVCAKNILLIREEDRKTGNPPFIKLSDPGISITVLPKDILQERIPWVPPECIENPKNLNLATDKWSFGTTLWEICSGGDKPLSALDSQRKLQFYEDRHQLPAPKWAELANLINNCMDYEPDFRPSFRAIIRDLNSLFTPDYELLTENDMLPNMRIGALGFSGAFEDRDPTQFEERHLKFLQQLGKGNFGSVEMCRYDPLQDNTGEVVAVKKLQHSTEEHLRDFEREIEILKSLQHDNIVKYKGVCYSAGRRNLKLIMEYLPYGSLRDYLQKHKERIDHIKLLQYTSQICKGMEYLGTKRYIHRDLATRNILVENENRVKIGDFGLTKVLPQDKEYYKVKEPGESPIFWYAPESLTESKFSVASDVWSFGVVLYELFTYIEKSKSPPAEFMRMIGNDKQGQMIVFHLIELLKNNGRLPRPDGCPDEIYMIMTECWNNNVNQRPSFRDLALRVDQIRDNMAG
Sequence of TTBK1 (Q5TCY1 whole entry): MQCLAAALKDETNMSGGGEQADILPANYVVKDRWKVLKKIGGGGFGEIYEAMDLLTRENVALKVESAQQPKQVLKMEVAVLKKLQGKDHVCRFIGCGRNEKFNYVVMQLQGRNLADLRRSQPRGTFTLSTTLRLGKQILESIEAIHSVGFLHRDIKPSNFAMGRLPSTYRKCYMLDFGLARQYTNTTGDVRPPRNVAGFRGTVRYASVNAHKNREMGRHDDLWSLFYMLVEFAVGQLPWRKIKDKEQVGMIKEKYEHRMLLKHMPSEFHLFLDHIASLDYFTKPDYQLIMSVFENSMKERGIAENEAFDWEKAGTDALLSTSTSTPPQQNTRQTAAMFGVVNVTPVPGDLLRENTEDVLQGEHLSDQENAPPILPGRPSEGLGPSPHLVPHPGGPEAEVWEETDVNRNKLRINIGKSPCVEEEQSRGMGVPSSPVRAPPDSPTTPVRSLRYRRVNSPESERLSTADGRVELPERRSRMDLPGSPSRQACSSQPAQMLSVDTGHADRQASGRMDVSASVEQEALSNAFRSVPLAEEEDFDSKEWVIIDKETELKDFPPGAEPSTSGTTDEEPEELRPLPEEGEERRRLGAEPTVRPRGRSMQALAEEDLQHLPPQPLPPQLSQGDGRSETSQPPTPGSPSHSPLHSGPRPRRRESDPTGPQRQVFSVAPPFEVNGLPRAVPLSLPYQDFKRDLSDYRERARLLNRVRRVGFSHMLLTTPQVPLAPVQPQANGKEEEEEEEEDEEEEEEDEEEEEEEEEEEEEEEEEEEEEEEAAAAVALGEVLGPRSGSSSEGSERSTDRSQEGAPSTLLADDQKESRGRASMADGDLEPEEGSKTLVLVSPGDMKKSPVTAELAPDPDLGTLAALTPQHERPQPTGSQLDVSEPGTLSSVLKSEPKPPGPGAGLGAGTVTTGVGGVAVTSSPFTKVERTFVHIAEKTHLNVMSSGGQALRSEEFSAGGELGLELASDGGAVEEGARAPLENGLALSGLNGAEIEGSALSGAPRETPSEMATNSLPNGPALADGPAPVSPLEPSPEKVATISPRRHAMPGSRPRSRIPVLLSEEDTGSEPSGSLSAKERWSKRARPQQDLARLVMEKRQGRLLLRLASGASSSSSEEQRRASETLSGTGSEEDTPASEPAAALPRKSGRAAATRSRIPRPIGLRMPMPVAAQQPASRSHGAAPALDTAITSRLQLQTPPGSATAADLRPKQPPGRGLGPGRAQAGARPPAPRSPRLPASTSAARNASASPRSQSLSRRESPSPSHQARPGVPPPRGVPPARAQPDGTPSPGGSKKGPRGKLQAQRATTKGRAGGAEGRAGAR
Sequence of S6K1 (P23443 whole entry): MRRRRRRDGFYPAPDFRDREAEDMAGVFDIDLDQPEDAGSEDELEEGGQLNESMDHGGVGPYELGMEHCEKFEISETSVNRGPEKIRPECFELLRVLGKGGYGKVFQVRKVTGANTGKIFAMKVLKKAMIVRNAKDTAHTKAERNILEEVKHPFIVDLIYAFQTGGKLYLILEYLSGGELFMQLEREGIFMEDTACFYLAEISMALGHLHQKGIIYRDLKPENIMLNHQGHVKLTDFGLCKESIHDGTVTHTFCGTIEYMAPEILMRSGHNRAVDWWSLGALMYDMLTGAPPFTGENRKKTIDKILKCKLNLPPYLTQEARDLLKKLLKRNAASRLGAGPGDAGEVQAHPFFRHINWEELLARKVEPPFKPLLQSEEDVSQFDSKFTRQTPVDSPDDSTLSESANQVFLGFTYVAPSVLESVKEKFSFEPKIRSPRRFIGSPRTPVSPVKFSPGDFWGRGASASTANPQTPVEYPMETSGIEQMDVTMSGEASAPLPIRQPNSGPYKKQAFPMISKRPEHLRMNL
Sequence of PDGFRA (P16234 24-1089): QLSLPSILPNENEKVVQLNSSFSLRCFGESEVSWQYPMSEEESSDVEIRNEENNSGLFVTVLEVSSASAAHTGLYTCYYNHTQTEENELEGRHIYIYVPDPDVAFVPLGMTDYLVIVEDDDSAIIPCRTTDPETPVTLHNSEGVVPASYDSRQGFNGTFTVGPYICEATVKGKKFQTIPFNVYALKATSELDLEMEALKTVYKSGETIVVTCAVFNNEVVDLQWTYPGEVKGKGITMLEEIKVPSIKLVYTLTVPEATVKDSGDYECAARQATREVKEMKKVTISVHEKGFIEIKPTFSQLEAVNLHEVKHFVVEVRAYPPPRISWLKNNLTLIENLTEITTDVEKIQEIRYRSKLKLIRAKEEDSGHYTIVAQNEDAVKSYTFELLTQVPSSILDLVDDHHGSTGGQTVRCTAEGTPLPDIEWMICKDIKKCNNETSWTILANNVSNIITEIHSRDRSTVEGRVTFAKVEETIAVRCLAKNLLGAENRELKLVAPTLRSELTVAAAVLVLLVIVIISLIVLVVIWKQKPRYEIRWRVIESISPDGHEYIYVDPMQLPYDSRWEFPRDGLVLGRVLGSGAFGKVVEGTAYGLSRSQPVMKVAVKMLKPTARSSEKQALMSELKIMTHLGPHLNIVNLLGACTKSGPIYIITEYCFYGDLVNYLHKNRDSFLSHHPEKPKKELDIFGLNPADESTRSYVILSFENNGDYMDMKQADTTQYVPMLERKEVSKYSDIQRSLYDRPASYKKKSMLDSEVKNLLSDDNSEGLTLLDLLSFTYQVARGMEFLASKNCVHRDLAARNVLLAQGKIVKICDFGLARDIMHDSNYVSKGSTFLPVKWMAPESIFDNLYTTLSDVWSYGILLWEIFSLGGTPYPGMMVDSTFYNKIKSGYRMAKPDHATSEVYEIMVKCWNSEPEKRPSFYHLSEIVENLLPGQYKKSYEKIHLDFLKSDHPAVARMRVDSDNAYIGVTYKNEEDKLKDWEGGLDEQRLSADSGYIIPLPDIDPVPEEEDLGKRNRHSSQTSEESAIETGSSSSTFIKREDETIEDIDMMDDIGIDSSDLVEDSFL
Sequence of MELK (Q14680 whole entry): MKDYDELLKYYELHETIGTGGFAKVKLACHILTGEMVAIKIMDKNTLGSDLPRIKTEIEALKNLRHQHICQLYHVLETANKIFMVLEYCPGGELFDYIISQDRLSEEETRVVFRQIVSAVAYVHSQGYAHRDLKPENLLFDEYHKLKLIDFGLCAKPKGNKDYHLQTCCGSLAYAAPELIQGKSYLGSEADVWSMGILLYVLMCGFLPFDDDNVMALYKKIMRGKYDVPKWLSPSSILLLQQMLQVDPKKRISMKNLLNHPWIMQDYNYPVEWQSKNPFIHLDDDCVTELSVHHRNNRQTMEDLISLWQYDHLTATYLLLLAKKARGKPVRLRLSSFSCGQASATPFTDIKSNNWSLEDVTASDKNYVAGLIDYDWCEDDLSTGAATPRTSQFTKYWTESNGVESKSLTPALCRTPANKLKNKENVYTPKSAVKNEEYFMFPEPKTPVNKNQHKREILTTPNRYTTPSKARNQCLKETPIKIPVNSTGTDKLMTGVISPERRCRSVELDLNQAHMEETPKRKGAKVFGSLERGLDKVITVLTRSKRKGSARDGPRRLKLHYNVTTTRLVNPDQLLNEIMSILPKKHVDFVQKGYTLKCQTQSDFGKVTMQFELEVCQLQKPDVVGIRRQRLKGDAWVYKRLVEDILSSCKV

For the compound `N=C(N)NCCC[C@@H](NC(=O)CCCCCNC(=O)Cn1cnc2c(I)c(I)c(I)c(I)c21)C(=O)N[C@H](CCCNC(=N)N)C(=O)N[C@H](CCCNC(=N)N)C(=O)N[C@H](CCCNC(=N)N)C(=O)N[C@H](CCCNC(=N)N)C(=O)N[C@H](CCCNC(=N)N)C(=O)N[C@H](CCCCN)C(N)=O` [ARC-3125, TIBI-CH2-C(=O)-Ahx-(D-Arg)6-D-Lys-NH2], the remaining activity at 1 µM in data set [1] was 97%; in data set [2], 123 ± 25%; in [3], 76 ± 1%; in data set [4], 22 ± 6%; in data set [5], 115 ± 5%; in data set [6], 77 ± 4%. The remaining activity at 1 µM in data set [7] was found to be 9 ± 5%; in data set [8] it was 9 ± 4%; in [9] it was 13%; in [10], 61 ± 1%; in data set [11], 34 ± 4%; in data set [12] it was 100 ± 8%.
For `N=C(N)NCCC[C@@H](NC(=O)CCCCCNCc1nc2c(sc3cc(Br)cnc32)c(=O)[nH]1)C(=O)N[C@H](CCCNC(=N)N)C(=O)N[C@H](CCCNC(=N)N)C(=O)N[C@H](CCCNC(=N)N)C(=O)N[C@H](CCCNC(=N)N)C(=O)N[C@H](CCCNC(=N)N)C(=O)N[C@H](CCCCN)C(N)=O` [ARC-3126, BPTP-Ahx-(D-Arg)6-D-Lys-NH2] (X3-[dR][dR][dR][dR][dR][dR][dK]-NH2), the remaining activity at 1 µM in data set [1] came out at 116 ± 3%; in [2] it was 103 ± 4%; in [3], 100 ± 6%; in data set [4] it was 117 ± 6%; in data set [5], 116 ± 9%; in [6] it was 118 ± 12%. Also, the remaining activity at 1 µM worked out at 75 ± 9% in data set [7]; 88 ± 17% in data set [8]; 75 ± 2% in data set [9]; 95 ± 15% in data set [10]; 79 ± 1% in data set [11]; 122 ± 21% in [12].
Take `N=C(N)NCCC[C@@H](NC(=O)CNC(=O)[C@@H](CCCNC(=N)N)NC(=O)[C@@H](CCCNC(=N)N)NC(=O)CCCCCCCNCc1nc2c(sc3cc(Br)cnc32)c(=O)[nH]1)C(=O)N[C@H](CCCCN)C(N)=O` [Compound 1, BPTP-Aoc-(D-Arg)2-Gly-D-Arg-D-Lys-NH2]: the remaining activity at 1 µM was 115 ± 2% in [1]; 116 ± 5% in [2]; 122 ± 17% in [3]; 122 ± 7% in [4]; 93 ± 14% in data set [5]; 116 ± 9% in [6]. Also, the remaining activity at 1 µM in [7] was 110 ± 19%; in data set [8], 107 ± 3%; in data set [9] it was 98 ± 2%; in data set [10], 111 ± 9%; in [11], 86 ± 5%; in data set [12], 112 ± 13%.
Take `N=C(N)NCCC[C@@H](NC(=O)CNC(=O)[C@@H](CCCNC(=N)N)NC(=O)[C@@H](CCCNC(=N)N)NC(=O)CCCCCCCNCc1nc2c(sc3ccc(Br)cc32)c(=O)[nH]1)C(=O)N[C@H](CCCCN)C(N)=O` [Compound 2, BBTP-Aoc-(D-Arg)2-Gly-D-Arg-D-Lys-NH2]: the remaining activity at 1 µM in data set [1] was 101 ± 16%; in data set [2], 97 ± 7%; in data set [3] it was 112 ± 6%; in [4] it was 139 ± 35%; in data set [5], 82 ± 16%; in data set [6], 104 ± 15%. Further, the remaining activity at 1 µM in data set [7] stood at 89 ± 3%; in [8], 101 ± 1%; in data set [9], 85 ± 1%; in data set [10], 60 ± 12%; in [11], 75 ± 9%; in data set [12], 98 ± 8%.
On to `N=C(N)NCCC[C@@H](NC(=O)CNC(=O)[C@@H](CCCNC(=N)N)NC(=O)[C@@H](CCCNC(=N)N)NC(=O)Cn1cc(CNCc2nc3c(sc4ccc(Br)cc43)c(=O)[nH]2)nn1)C(=O)N[C@H](CCCCN)C(N)=O` [Compound 3, BBTP-Amt-(D-Arg)2-Gly-D-Arg-D-Lys-NH2], for which the remaining activity at 1 µM was found to be 108 ± 4% in data set [1]; 99 ± 6% in [2]; 104 ± 2% in data set [3]; 113 ± 23% in data set [4]; 72 ± 21% in [5]; 122 ± 12% in data set [6]. The remaining activity at 1 µM was determined as 95 ± 4% in data set [7]; 99 ± 10% in [8]; 55 ± 6% in data set [9]; 60 ± 3% in data set [10]; 73 ± 11% in [11]; 101 ± 9% in data set [12].
